Data from the domain aggregation screens of Martell et al. (2025).

Assay: soluble fraction after stress (log2 fold change); higher = more stays soluble; pooled small domains, quantitative proteomics
Conditions: stress: pH 4
Procedure, shortened: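 After pH 4 stress, pooled custom libraries of small protein domains were quantified with high-throughput quantitative proteomics. Aggregation propensity is taken from the fold change in each domain's soluble amount following the acid stress. The scale is log2, where higher values mean more stayed soluble.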

Compared with “HMNRTKQIYNELLFRLDQGVYPPESKFPSESQLADEFSVSKVTMNKIVSMLASSGRLSRGVRGAGTFVSSP”, “HMSSLTPRETEVLSRMAQGDANTSIAERLVITEKAVQKHINAIFAKLGLAEEPTSARRVLAVLAFLR” is lower in “soluble fraction (log2)” value: 0.319 for the first, -0.407 for the second.

Compared with “HMGTRPAYAADAPNPQKRFIYHRIVDQLRNKATGAPISYRAIAAETGVSVQTVINIKNRMNQMLSEK”, “HMENLSFNINSEEEGQRIDKYLSVMIEGKSRSFVQGLIEEKKVKANSKVIKSNYKLKKGDFIEVEVPEPV” is lower in “soluble fraction (log2)” value: at least 0.43 for the first, 0.36 for the second.

Going from “HMTPIELIEKTIELIENERKVQKLQQKELALKADIPFPTYKDFIYKKRASLENILKLFIALRLF” to “HMAGTPAVVKWFNPTKGFGFVTPREAGSDALLHASVLAKQGKRWLQEGTVVEVVLEEGPKGLVVSEVLTIE”, the “soluble fraction (log2)” value rises from -0.88 to -0.469.

Going from “HMVVPSNPDELKGSFSLAEVASGYGLEVAAILEKAGWPADTDPNVKMRDAANAIGRDSTDIRNAVKALLKS” to “HMGWVMLVIMSRGASEAQINAVVEKIRAAGLTEHLSKGIERTIIGAIGEERKLEPEVFELLPGVEQALHIV”, the “soluble fraction (log2)” value falls from -0.468 to -0.713.

First: HMGTDFRPVFQYVDELVRAGEFTNLKGMIYFTDGRGIFPEKKPDYDAAFVFLDDGYDPPDVPVWAIKLVL
Second: HMFFDSDTDIQNALNAENSIKKYQLFRTQTLYNSAQSDIDFVNQPEVKAKLFDALENLKNKLGFLAEPT
The “soluble fraction (log2)” value of the first is lower: -0.709 for the first, -0.4 for the second.

First: HMKGKWKPIILWQLSKAPQSLSGLRHSIAGISQKMLIQHLNELIHFGFVVRTTFEGYPLKVEYDLTDRGR
Second: HMYRSGGYTGAGKDDEEAGVVHRNEFVNTADAVRNPHVKRFLDVFNVAQKDGTIRMLNTSQILERARLDA
The “soluble fraction (log2)” value of the first is lower: -0.251 for the first, 0.0596 for the second.

Compared with “HMEITGKYKAKEDIKLKVIPLISSLDLQDIKQNTELEVKDTMNNWAYVTVQEKQGWVVLEKIEKVE”, “HMQAVKQIKVERGMTLEKIAQSEFGDSTRWGEIVEVNNLRAPYISDDPTETRDGVLKPGSNLLIPIP” is higher in “soluble fraction (log2)” value: -1.07 for the first, -0.825 for the second.

Compared with “HMDLPAEFSKPELETLFKRGKQSGELSLTEVRDALEAAQLPNKKTQTKVLKVLSDNAIHVLMDG”, “HMKRTMVEAAMVAKLFNLTVRRIQQLTQDGVLTTELVDKKRRYDLLLTVQKYIAYLQEKVAK” is higher in “soluble fraction (log2)” value: 0.0785 for the first, at least 0.43 for the second.

First: HMIRSNLAEQAYAQLKALIHDFQLLPGDRFSENEMGTRLGVSRTPVREALFRLRNEGFLEVESKAGWYVK
Second: HMSKKMLASIFDTISGIGKKRLKKIWDNYTSLNELKDDSLENIYAKTQIPINLITKIKEKLE
The “soluble fraction (log2)” value of the first is lower: -1.73 for the first, at least 0.43 for the second.

First: HMSNLNHSFQYKKNIGRKISLTYLGRDNESISKIYELIDSNDSGILVKNKNVEIFIHYEKIVSAKIKVS
Second: HMPSEQGANKARDIIFRHHMKVDVWVGSWENARNYAEQAIKQGVKVIISRGGTAALLRHSLDTAIIKVR
The “soluble fraction (log2)” value of the first is lower: -0.213 for the first, 0.22 for the second.

Going from “HMEIIFVEHKVRPGESVWLIARKYKVKKNHILAVNNLSEKSIIRPKQILKIPTSGYDQYKKSVE” to “HMIYYTEEELVKRYIDFSNYLGKKEGASDVDFKKYAVEFGIPSRDHYNRKFITLFNLKIKAGYKPIRH”, the “soluble fraction (log2)” value falls from -0.495 to -1.13.

“HMNEYLPEAVQKLLEVMEYDIPYTSNELMERLGLKAKEGFRRNYLHPAMEMKLIQMTIPDKPNSRNQRYLR” and “HMFEDEYLETMYAFYETDPQALVRTGDLASSLKVSPASATEMVQRLASKGFVDYIPYKGASLTELGLAM” are within 0.2 log units of each other in “soluble fraction (log2)” value: -0.248 for the first, -0.438 for the second.

Going from “HMKVLNVLESEIVRLFKQGQQKDNIRDNIYKTHGQHYNNKKSFNVVFGRKWNSLLEQGFLES” to “HMKNHIEERRKARGMTQQQLASELGVSRQTIISLENGKYNPSILLAHSIARLFGERIEDIFILR”, the “soluble fraction (log2)” value falls from 0.241 to -0.354.

First: HMQQGVEQLPVTEVGGRLMHYYEVQPKETLYSLSHKLGVGQEYIEQHNPSVRGGLRAFMTLYFPAA
Second: HMEDGEALARAVASLPGKYREVLFLKYSHGYSVDEIALILSMSKENVKKTIQRARKKLEQLLESE
The “soluble fraction (log2)” value of the first is higher: -0.12 for the first, -0.507 for the second.

First: HMAEPLMTQIVEIEYADAEGLRENLEQFLTRLDEKTLLGSVLVDRHTNSLIIQAVRSDLERMLPLIETLDR
Second: HMGNQALSSVLSDIAGIGPVKTKELLRVYPDLDSLRQAPVEEVAKVKGIGRQLAQKIHDHFSSR
The “soluble fraction (log2)” value of the first is lower: -1.49 for the first, -0.0357 for the second.

Compared with “HMTKINAPMPGNILDVKVNVGDHVEANQLVLMLEAMKMENEIFTPVAGTVVGVHVKKGDSVNSDDLLISI”, “HMRRQRNPEIFDQLVNKFHFTFTQTQQLKQLIKRWHMLFPGKSLKSAIQGYKSAKEILTYINDSLDVVE” is higher in “soluble fraction (log2)” value: -1.09 for the first, 0.0668 for the second.

Compared with “HMAIGERIRFLRTLRRMTQKELGLAAGFPEKNASIRMAQYENGTRTPKAELTAVLAEILKVSPQALTV”, “HMNYIGADAAKNMAAADAQVDTANASFSGANLGEKNGLSYYQVDFTANGREYHYAIDAMTGTVIESSSAAS” is lower in “soluble fraction (log2)” value: 0.173 for the first, -0.0522 for the second.

First: HMNIYFNIEDAVANAVVENGKMSAAIYEKNVDTGEVAKLAEVSMPVMGGNINITKTLLTKALISQLP
Second: HMFTIGENIRDLRLERAITQEQLAEQLNVSAPAVSKWERGEAYPDITLVPKLAEILGVSTDKLFGVD
The “soluble fraction (log2)” value of the first is lower: -0.713 for the first, -0.265 for the second.

“HMYDFGVILQKLRKEKGFTQEQLARLIHKESSIISRYEKGLQNPTFETVKEFAAIFNVSMDYLAG” and “HMLTGISALKPTEAFPDEIFYEIFEIEDNIERTQYIESLRNTARQLKRVTEFNNLYKSFVLDYAQRQKQ” are within 0.2 log units of each other in “soluble fraction (log2)” value: -0.255 for the first, -0.375 for the second.

Going from “HMNASTVTLENFEGAKYDDVYGKYDYQFSVTYEQTDKYESGVIISQKPEAGTKIIKGSQVSLVVAT” to “HMVDFVNVVVPVKANYGGEAVVEFLDERLSEFGTEGIYRIELQGETMENPSPDYSQLKAKYHISEIVDRT”, the “soluble fraction (log2)” value falls from 0.101 to -0.375.

“HMESVDRIYERVRRYADDVGTAKIPMKELDDDGPLGTAVSRIRERRKRGELTEEWEARFETLPGWTWAA” and “HMLNAPFGFRIEDDTLIPIPEEAKVVRQIFRYYLQGMGFGKIAQELNGQDVPGKPWGKERIKYILSNEKYI” are within 0.2 log units of each other in “soluble fraction (log2)” value: -0.265 for the first, -0.0934 for the second.

Going from “HMDSVVPNVVGMTAEKANKALTDAGLNVKITGATIGSGAVVHSQSIPAGTVTSKGTVVSIEMRFAAAEGD” to “HMTNVNSLIGKKAIVIQDIDNLKSTGQVKIGGEIWSAQSESNDIISKDTEVEIVKIDGVKLIVRLVPV”, the “soluble fraction (log2)” value rises from -0.193 to 0.225.

Going from “HMNRIGERIKRKRELRNLNLGELAEKVGISASALSQIEKSKSFPSVITLKSIAEQLRTTVGELIGEN” to “HMTKKEFLDILTESLAGNVPASEIEENIRYYKDYIENGEESEEKALEQLGDPHLIARTIIDSFIA”, the “soluble fraction (log2)” value falls from 0.328 to -1.46.

Going from “HMNQEIELLLREPDFTSAARLAMAINERFTNSARAIDPTSVKVRMPEGLDQASVDFVARLEDIEMSPDT” to “HMAIKTGAVTGHGVKVRKGPSTNEKAIHDVLYGSRLQILEEKNGFLKAKFEDGTTGWISKQFVTTTDKNLL”, the “soluble fraction (log2)” value rises from -0.587 to -0.0244.

“HMERPLFVIEDYRRFAGNEVEISLKKGGKKIRGVIAGTPSDAEVTVRTQGGETTVPLGDVKRAHLVYV” and “HMTETTTVPKLKGLTKDEAEDAAKSSKIKLEFIDEISKTVEAGVIIKQEKDEGETVNAGDTVKVYVSIGT” are within 0.2 log units of each other in “soluble fraction (log2)” value: 0.0919 for the first, -0.0593 for the second.

First: HMGSREVPFSDFISKVESGSVLEVVLRGRQVEGLTDANERFQTQIPNYPALFEILERNQVRTRVEPT
Second: HMDSLQDFAYEEIKKRIQNGEYAPGTKLNTQEISDSLGISRSPVLAAINRLIALGLVEATPRKGTTVA
The “soluble fraction (log2)” value of the first is lower: -0.814 for the first, -0.0359 for the second.

Compared with “HMYSIKEFSFEVTTPGQRLDLFLSEELIGQTRSSIQNLILKKYVTVNGQVSKASYKVKTGEFISVKIPV”, “HMAGNNTATKEIAELLIAKGADVNAMNLSPPGREIGGMTPLDMAILGNRNEIADLLRKHGGRTQKELKAE” is lower in “soluble fraction (log2)” value: 0.22 for the first, -0.104 for the second.

First: HMDGLPYPEAAEEPIAQVARNLGMDATRVSIALQEAKLIFRNLDETLAEIAANNGTTPQVVYDAIRHLEPP
Second: HMIKRITDEQHPVDVDRLLVVTFTNAAASEMRERIGDAIEAALEKDPYNQHLQRQLTLVHNAQITTIDS
The “soluble fraction (log2)” value of the first is lower: -0.372 for the first, 0.00503 for the second.

“HMGKVTILSNPVKDALVIMGLHNAETIDVRLFDNTGRLVMQGSQSRMDISSLSPGLYILQVNGKILKVIK” and “HMAAINTYQVRKIYAIAGALGMKSRDGDDALHDLVFGMTGKQHISGLTSAEAYDVIAELEKKQ” are within 0.2 log units of each other in “soluble fraction (log2)” value: -0.222 for the first, -0.223 for the second.

Compared with “HMQGEDEILKIHEALEELAQIDARLVRVVEMRYFVGLSNQEIADSLGVTTRTVERDWEKARTFLFNALHP”, “HMGVTVDEVHRNFESGMNVVHKKFGAGVVDSFDEGKIRINFDGVIKVFIADVLINSGMLESVSYTH” is lower in “soluble fraction (log2)” value: -0.717 for the first, -0.922 for the second.

Going from “HMDYTGIPQSLLDLMKKDNIMPMQIQRAVAERNYYPVDTPISNYDPMFIEAKLVGAWDQVLNVISHLDLP” to “HMAGAITEREVEVLELLSRGLGNKEIAKELFVSEATVKSHLSHIYTKLAVDTRAGAVAAAIERRIIRAWR”, the “soluble fraction (log2)” value rises from -1.51 to -0.388.

“HMHDLDALTGLSGEARSKVYEEGSVFVAGEMWSAKSDAVIPAGSSIRVVRREGFILVVEKDS” and “HMSFGFFELKSSDTDKLFAYLNNNEHFGNIKEENGLVTAFLTSELDAQTLNKLLFDNGIIASHLVKRK” are within 0.2 log units of each other in “soluble fraction (log2)” value: -1.97 for the first, -1.82 for the second.

First: HMEELPIIVAQRFLNIFRQLHIFSDERREAFNKMLLELPPEVKSIFQSLPGGTPLQEYMEDLEQKSK
Second: HMTGEDIKKVILREYAREKSLLSIFHELSKVNSNVTLEVIKDIITNIDKLPNDLLQYFKEESSFYQKNKN
The “soluble fraction (log2)” value of the first is higher: -0.262 for the first, -1.35 for the second.

Compared with “HMKSIEVPNLINMTLRKAKIELIDNEFNLDTVIYEYNPNIREGRVSLQIPESGTILKSGSNISIHISKGIP”, “HMVEREYRLEVPPEAEGKRLDQFLVNQPVQLSRSQVQHLIQNGLVLVNAKTRRSSYRVHTGDIIEMQVPA” is higher in “soluble fraction (log2)” value: -0.32 for the first, -0.088 for the second.

Going from “HMAARLMRALIPYAQGGLLAKLHEDGQVLSEEYTGEGIEVKALADEQLFGRLTVQLGEQAVSWQD” to “HMAQLSDDEQAIIDTITRRGDATMSELIASVNVSTPRLMSMLIDMEFRSLITALPGGRYQIRLIN”, the “soluble fraction (log2)” value falls from -0.205 to -0.464.

“HMIGGASVFKQFLPLADKMLLTLIHSEFEGDTYFPVFSEKEWLLQESSSLLSATGYQLSFQTYIR” and “HMATEWLSSKEAAQRLGVSAATLYAYVSRGLLRSEGSSGQRERRYRADDVAQLRRRREVGRKAESIAASTL” are within 0.2 log units of each other in “soluble fraction (log2)” value: 0.013 for the first, 0.142 for the second.

“HMKIAEALNLRGDADSYERQEAIWLLEHIVGMSALELKYRGEQDLTEDQLQQYRSGLQRLEQGEPLAYVIG” and “HMRREIRLTVTEEIVLMKFLLTQIPYKNRDNFKTLLNDRQIRVNGSVVTWYNHPLKPGQEVTIGWFKM” are within 0.2 log units of each other in “soluble fraction (log2)” value: -0.73 for the first, -0.628 for the second.

In the case of “HMIKLIKKDTNISELKMSKMPWDVMLYGKPYQVVSIKGYVHTIGGRRGENDLWMYPRDESPTYENLIEFQ”, the “soluble fraction (log2)” value is reported as 0.279.
